Results on three compounds are retold here after patent publication US5158935A, “Human epidermal growth factor having substitution at position 11” (Chiron Corporation, priority 1989, dated 1992).

For data set [1] the following is noted: citrate buffer, pH 3, 45° C. The method, then:
Solutions of rhEGF and rhEGF-Glu11 were prepared in citrate buffer, pH 3, and were maintained at 45° C. Aliquots were drawn on days 0, 1, 7, and 15, and were analyzed by RP-HPLC (as described in Example 2).

For data set [2] the following is noted: forms isolated from recombinant yeast culture; cited from earlier work.
For data set [3] the following is noted: stored as a lyophilized powder; cited from earlier work.

On to `CC[C@H](C)[C@@H]1NC(=O)[C@H](Cc2ccc(O)cc2)NC(=O)CNC(=O)[C@H](C(C)C)NC(=O)[C@H](C(C)C)NC(=O)[C@@H](NC(=O)[C@H](CC(N)=O)NC(=O)[C@@H]2CSSC[C@@H]3NC(=O)[C@H](Cc4ccc(O)cc4)NC(=O)CNC(=O)[C@H](CC(=O)O)NC(=O)[C@H](Cc4c[nH]cn4)NC(=O)[C@H](CO)NC(=O)[C@H](CC(C)C)NC(=O)[C@@H]4CCCN4C(=O)[C@@H](NC(=O)[C@H](CCC(=O)O)NC(=O)[C@H](CO)NC(=O)[C@H](CC(=O)O)NC(=O)[C@H](CO)NC(=O)[C@@H](N)CC(N)=O)CSSC[C@H](NC(=O)[C@H](C(C)C)NC(=O)CNC(=O)[C@H](CC(=O)O)NC(=O)[C@H](Cc4c[nH]cn4)NC(=O)[C@H](CC(C)C)NC3=O)C(=O)N[C@@H](CCSC)C(=O)N[C@@H](Cc3ccc(O)cc3)C(=O)N[C@@H]([C@@H](C)CC)C(=O)N[C@@H](CCC(=O)O)C(=O)N[C@@H](C)C(=O)N[C@@H](CC(C)C)C(=O)N[C@@H](CC(=O)O)C(=O)N[C@@H](CCCCN)C(=O)N[C@@H](Cc3ccc(O)cc3)C(=O)N[C@@H](C)C(=O)N2)CSSC[C@@H](C(=O)N[C@@H](CCC(N)=O)C(=O)N[C@@H](Cc2ccc(O)cc2)C(=O)N[C@@H](CCCNC(=N)N)C(=O)N[C@@H](CC(=O)O)C(=O)N[C@@H](CC(C)C)C(=O)N[C@@H](CCCCN)C(=O)N[C@@H](Cc2c[nH]c3ccccc23)C(=O)N[C@@H](Cc2c[nH]c3ccccc23)C(=O)N[C@@H](CCC(=O)O)C(=O)N[C@@H](CC(C)C)C(=O)N[C@@H](CCCNC(=N)N)C(=O)O)NC(=O)[C@H](CCCNC(=N)N)NC(=O)[C@H](CCC(=O)O)NC(=O)CNC1=O` [EGF-Asp11], for which the “degradation products versus original protein by RP-HPLC” value in data set [1] (by day 15) is recorded as “the degradation products outweighed the original rhEGF”. In addition, the “degradation seen in RP-HPLC chromatograms” value in data set [1] (days 0, 1, 7 and 15) is recorded as “rapidly degraded to rhEGF-isoaspartyl11”.
“EGF-B: EGF-D wherein the C-terminal arg-leu has been removed (NSDSECPLSHDGYCLHDGVCMYIEALDKYACNCVVGYIGERCQYRDLKWWE; not fully specified; Epidermal growth factor; UniProt P01133 971-1021, looked up, fragment)”: the EGF activity entry in data set [2] is on record as “full EGF activity”.
Regarding “EGF-D: 52-amino acid sequence obtained by removing the C-terminal arg of EGF (NSDSECPLSHDGYCLHDGVCMYIEALDKYACNCVVGYIGERCQYRDLKWWEL; not fully specified; Epidermal growth factor; UniProt P01133 971-1022, looked up, fragment)”, the EGF activity result in data set [2] is on record as “full EGF activity”. Further, the stability on storage result in data set [3] is “stable”.
